Experimental findings from paper PMC8554075 are described below.

The target in the assay is unmutated common ancestor of the AB-3467 clonal lineage, expressed as human IgG1 (human V(D)J (Ig-humanized TRIANNI mouse)). Nature of the assay: BLI. (In general: Biolayer interferometry detects binding as a change in optical thickness at a sensor tip.)

pKd: −log10 of the molar value.

Regarding “SARS-CoV-2 receptor-binding domain (from UniProt P0DTC2 333-528) (domain or fragment)”, the pKd (in general, the negative decadic logarithm of the Kd, by convention in mol/L) is 6.30.
